This note sets out measurements from paper PMC12592418, “Therapeutic potential of red bean (phaseolus vulgaris) peptides: anticancer, antihypertension, and antioxidant activities” (Scientific Reports, 2025).

No end group written: not given here.

One data set has as its system CaCO2 cells. Nature of the data set: MTT cell viability assay, CaCO2. In kind it is cell-based, human. To be noted: synthetic peptide 100 µg/ml, 24 h, mean ± SD, n = 3. How it is done: CaCO2, HepG2, MCF-7, NCI-H460, SiHa, SW620, and Vero cells were obtained from the American Type Culture Collection (ATCC, Manassas, VA, USA). Cells were cultured in Dulbecco’s Modified Eagle’s Medium (DMEM; PAA, Pasching, Austria), supplemented with 10% (v/v) fetal bovine serum (Gibco, South America), 10 mM HEPES (HyClone, Utah, USA), 2 mM L-glutamine, and 100 U/mL penicillin and 100 µg/mL streptomycin. Cultures were maintained at 37 °C in a humidified atmosphere containing 5% CO₂.
The anticancer activity of protein hydrolysates and synthetic peptides against CaCO2, HepG2, MCF-7, NCI-H460, SiHa, SW620, and Vero cells were evaluated using the MTT assay. Cells were seeded into 96-well plates (Nunc™, Roskilde, Denmark) at a density of 2 × 10⁴ cells per well, and allowed to adhere. Following seeding, cells were treated with 100 µg/mL of protein hydrolysates or synthetic peptides for 24 h, while untreated cells served as controls. After 24 h, 20 µL of MTT solution (5 mg/mL; Sigma, St. Louis, MO, USA) was added to each well and incubated for an additional 3 h. The supernatant was then removed, and 100 µL of DMSO was added to each well to dissolve the formazan crystals. Optical density (OD) was measured at 540 nm using a microplate reader (Rayto RT-2100 C, China). Cell viability was calculated using the equation: (OD of treated cells/OD of untreated cells) × 100.
The IC50 values were calculated from a fitted semi-log response curve, plotting cell viability percentages against concentration. These values were determined using the AAT-Bioquest IC50 calculator (https://www.aatbio.com/tools/ic50-calculator).
Background: Tetrazolium assays rely on reduction of a dye to a coloured formazan, in cell work by metabolically active cells.

Data set [1] addresses T1, angiotensin-converting enzyme (ACE) (UniProt P12822).
T1 sequence (P12822 whole entry, species assumed, looked up): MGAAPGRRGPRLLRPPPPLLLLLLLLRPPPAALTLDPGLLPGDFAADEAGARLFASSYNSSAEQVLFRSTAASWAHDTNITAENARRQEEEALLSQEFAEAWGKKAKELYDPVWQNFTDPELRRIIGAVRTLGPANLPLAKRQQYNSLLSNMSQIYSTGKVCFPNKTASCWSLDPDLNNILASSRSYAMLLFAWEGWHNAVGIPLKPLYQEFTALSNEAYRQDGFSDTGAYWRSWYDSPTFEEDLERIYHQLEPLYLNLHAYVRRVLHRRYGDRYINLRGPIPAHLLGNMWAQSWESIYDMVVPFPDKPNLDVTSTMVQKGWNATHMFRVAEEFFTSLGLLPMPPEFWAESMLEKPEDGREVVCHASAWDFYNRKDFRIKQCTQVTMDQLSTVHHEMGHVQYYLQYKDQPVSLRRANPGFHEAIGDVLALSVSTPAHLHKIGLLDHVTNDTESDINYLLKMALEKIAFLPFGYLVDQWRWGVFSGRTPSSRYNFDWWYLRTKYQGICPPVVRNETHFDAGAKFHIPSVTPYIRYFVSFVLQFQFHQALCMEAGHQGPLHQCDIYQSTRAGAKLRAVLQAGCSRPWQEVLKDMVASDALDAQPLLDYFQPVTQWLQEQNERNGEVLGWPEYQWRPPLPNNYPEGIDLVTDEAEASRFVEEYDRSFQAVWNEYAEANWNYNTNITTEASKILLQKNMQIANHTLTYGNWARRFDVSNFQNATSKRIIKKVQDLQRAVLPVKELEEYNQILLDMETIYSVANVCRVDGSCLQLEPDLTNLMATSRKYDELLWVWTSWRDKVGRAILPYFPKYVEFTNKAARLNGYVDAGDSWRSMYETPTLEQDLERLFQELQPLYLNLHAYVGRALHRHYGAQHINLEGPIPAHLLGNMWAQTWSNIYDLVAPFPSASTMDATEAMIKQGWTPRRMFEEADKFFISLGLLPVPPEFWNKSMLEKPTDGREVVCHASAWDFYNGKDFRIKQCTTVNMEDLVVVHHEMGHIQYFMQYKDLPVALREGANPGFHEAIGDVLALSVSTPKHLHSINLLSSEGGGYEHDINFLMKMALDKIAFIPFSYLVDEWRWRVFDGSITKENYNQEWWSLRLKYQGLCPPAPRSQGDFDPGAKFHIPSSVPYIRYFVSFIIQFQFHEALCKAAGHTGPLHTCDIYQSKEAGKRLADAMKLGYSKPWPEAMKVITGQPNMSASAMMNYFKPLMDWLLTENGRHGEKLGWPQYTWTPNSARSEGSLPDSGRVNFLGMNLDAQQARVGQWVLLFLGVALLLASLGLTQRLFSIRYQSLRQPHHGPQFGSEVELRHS

For LIIPATSTKFL [RB-8], the “Inhibitory percentage, CaCO2” value with CaCO2 cells is 20.79±1.23%.

For RGSKQRQKRQW [RB-7], in data set [1], the Antihypertension (%): percent inhibition of ACE activity (hydrolysis of hippuryl-L-histidyl-L-leucine) at 100 µg/ml peptide was 60%.

On to LIIPATSTKFL [RB-8], for which, in data set [1], the Antihypertension (%): percent inhibition of ACE activity (hydrolysis of hippuryl-L-histidyl-L-leucine) at 100 µg/ml peptide is 16.7%.

With GSEIRSTSDDVL [RB-4], the Antihypertension (%): percent inhibition of ACE activity (hydrolysis of hippuryl-L-histidyl-L-leucine) at 100 µg/ml peptide in data set [1] was 13.3%.

In the case of NLRKLKRL [RB-1], the Antihypertension (%): percent inhibition of ACE activity (hydrolysis of hippuryl-L-histidyl-L-leucine) at 100 µg/ml peptide in data set [1] was found to be 20%.

For the molecule RRLRILL [RB-6], the Antihypertension (%): percent inhibition of ACE activity (hydrolysis of hippuryl-L-histidyl-L-leucine) at 100 µg/ml peptide in data set [1] worked out at 46.7%.

APANGSAF [RB-5] registered an Antihypertension (%): percent inhibition of ACE activity (hydrolysis of hippuryl-L-histidyl-L-leucine) at 100 µg/ml peptide in data set [1] of 43.3%.

Turning to SPTPPKNVPF [RB-3], the Antihypertension (%): percent inhibition of ACE activity (hydrolysis of hippuryl-L-histidyl-L-leucine) at 100 µg/ml peptide in data set [1] was 20%.

In the case of DHPTGGL [RB-2], in data set [1], the Antihypertension (%): percent inhibition of ACE activity (hydrolysis of hippuryl-L-histidyl-L-leucine) at 100 µg/ml peptide was determined as 0%.
